From IntAct's records for PubMed 10646860

B1: Apoptosis-stimulating of p53 protein 2 (Homo sapiens), Q13625 (parent)
chain: MMPMFLTVYLSNNEQHFTEVPVTPETICRDVVDLCKEPGESDCHLAEVWCGSERPVADNERMFDVLQRFGSQRNEVRFFLRHERPPGRDIVSGPRSQDPSLKRNGVKVPGEYRRKENGVNSPRMDLTLAELQEMASRQQQQIEAQQQLLATKEQRLKFLKQQDQRQQQQVAEQEKLKRLKEIAENQEAKLKKVRALKGHVEQKRLSNGKLVEEIEQMNNLFQQKQRELVLAVSKVEELTRQLEMLKNGRIDSHHDNQSAVAELDRLYKELQLRNKLNQEQNAKLQQQRECLNKRNSEVAVMDKRVNELRDRLWKKKAALQQKENLPVSSDGNLPQQAASAPSRVAAVGPYIQSSTMPRMPSRPELLVKPALPDGSLVIQASEGPMKIQTLPNMRSGAASQTKGSKIHPVGPDWSPSNADLFPSQGSASVPQSTGNALDQVDDGEVPLREKEKKVRPFSMFDAVDQSNAPPSFGTLRKNQSSEDILRDAQVANKNVAKVPPPVPTKPKQINLPYFGQTNQPPSDIKPDGSSQQLSTVVPSMGTKPKPAGQQPRVLLSPSIPSVGQDQTLSPGSKQESPPAAAVRPFTPQPSKDTLLPPFRKPQTVAASSIYSMYTQQQAPGKNFQQAVQSALTKTHTRGPHFSSVYGKPVIAAAQNQQQHPENIYSNSQGKPGSPEPETEPVSSVQENHENERIPRPLSPTKLLPFLSNPYRNQSDADLEALRKKLSNAPRPLKKRSSITEPEGPNGPNIQKLLYQRTTIAAMETISVPSYPSKSASVTASSESPVEIQNPYLHVEPEKEVVSLVPESLSPEDVGNASTENSDMPAPSPGLDYEPEGVPDNSPNLQNNPEEPNPEAPHVLDVYLEEYPPYPPPPYPSGEPEGPGEDSVSMRPPEITGQVSLPPGKRTNLRKTGSERIAHGMRVKFNPLALLLDSSLEGEFDLVQRIIYEVDDPSLPNDEGITALHNAVCAGHTEIVKFLVQFGVNVNAADSDGWTPLHCAASCNNVQVCKFLVESGAAVFAMTYSDMQTAADKCEEMEEGYTQCSQFLYGVQEKMGIMNKGVIYALWDYEPQNDDELPMKEGDCMTIIHREDEDEIEWWWARLNDKEGYVPRNLLGLYPRIKPRQRSLA

Variants of: B1
Details: with apcl_human APC2, O95996
apcl_human APC2, O95996, sequence (O95996 whole entry): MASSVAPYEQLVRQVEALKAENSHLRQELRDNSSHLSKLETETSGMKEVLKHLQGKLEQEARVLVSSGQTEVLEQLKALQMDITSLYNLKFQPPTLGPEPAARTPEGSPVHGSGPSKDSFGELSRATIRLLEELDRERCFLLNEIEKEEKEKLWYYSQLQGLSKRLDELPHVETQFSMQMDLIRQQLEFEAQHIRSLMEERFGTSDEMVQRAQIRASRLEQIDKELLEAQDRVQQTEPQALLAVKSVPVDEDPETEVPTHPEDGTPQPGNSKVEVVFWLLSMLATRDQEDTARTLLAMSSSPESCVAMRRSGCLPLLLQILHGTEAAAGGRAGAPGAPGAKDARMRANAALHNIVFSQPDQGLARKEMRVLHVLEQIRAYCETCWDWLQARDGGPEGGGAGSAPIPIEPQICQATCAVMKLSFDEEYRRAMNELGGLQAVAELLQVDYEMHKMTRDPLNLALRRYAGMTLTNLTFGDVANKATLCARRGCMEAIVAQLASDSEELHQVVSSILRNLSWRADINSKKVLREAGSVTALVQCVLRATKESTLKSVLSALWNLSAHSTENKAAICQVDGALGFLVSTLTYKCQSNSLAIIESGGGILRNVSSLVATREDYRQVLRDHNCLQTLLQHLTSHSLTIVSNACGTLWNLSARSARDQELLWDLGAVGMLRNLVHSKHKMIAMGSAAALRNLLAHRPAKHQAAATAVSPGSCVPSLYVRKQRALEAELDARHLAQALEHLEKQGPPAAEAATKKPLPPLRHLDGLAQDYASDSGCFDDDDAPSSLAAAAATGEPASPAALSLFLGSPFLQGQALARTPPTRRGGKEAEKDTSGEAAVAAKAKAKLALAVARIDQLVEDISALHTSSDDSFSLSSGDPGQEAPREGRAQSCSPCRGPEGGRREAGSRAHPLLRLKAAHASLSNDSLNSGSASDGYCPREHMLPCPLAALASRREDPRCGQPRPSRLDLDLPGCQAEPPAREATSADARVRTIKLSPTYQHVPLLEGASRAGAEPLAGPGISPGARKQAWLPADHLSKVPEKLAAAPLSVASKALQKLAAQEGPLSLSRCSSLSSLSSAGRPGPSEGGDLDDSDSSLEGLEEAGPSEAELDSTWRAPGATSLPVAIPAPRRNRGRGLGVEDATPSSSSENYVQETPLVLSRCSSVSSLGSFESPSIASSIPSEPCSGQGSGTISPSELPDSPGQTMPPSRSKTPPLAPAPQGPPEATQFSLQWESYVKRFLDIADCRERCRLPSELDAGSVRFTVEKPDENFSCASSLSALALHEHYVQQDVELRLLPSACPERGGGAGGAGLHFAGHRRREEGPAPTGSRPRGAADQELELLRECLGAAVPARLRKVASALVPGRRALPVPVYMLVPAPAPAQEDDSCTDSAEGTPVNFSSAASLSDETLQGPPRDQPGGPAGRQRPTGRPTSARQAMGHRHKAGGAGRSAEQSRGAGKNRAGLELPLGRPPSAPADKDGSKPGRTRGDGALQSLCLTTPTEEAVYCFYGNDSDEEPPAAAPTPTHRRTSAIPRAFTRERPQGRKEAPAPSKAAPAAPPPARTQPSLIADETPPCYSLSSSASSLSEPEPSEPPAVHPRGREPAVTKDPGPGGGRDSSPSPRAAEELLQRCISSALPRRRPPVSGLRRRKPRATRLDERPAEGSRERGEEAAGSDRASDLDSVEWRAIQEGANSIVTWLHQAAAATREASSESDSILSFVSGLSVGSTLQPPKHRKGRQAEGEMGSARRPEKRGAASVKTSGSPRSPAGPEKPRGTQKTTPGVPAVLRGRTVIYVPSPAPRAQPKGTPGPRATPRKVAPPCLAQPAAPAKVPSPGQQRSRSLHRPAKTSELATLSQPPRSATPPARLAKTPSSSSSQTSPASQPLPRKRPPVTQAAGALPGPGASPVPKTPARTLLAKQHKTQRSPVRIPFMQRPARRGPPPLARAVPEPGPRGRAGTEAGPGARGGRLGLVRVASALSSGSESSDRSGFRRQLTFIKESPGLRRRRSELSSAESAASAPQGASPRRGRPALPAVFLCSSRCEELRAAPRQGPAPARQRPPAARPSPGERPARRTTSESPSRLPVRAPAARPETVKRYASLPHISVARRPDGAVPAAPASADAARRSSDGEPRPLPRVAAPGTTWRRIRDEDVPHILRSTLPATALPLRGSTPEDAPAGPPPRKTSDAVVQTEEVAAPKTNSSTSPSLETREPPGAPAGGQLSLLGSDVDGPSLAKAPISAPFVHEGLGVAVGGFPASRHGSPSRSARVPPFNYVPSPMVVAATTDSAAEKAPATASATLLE

Variant | effect of a mutation on the interaction
W1098K | disrupting interaction strength
